Reference: patent US20170247475A1 (Boehringer Ingelheim, published 2017)
Where a chain is given by its changes, count along the chain named.

B1: VEGFBII39H11 (VHH)
VHH: EVQLVESGGGLVQAGGSLRLSCAASGRTFSAYDMGWFRQAPGKEREFVAVISWTGGMTYYADSVKGRFTISRDKAKNTVSLQMNSLKPEDTAVYYCAVDRRRTYSRWRYYTGVNEYEYWGQGTQVTVSS
B2: VEGFBII41B06 (VHH)
VHH: B1 VHH with G56D, V98A
B3: VEGFBII36C08 (VHH)
VHH: B1 VHH with G55N, G56S, K74N, S80Y, Y109F, E115D, E117D
B4: VEGFBII38A06 (VHH)
VHH: B1 VHH with T54S, K74N, S80Y, T103L, E115D, E117D
B5: VEGFBII42F10 (VHH)
VHH: B1 VHH with T54S, Y59D, D73E, K74N, V79Q, S80F, D99G, T103A, E117D
B6: VEGFBII41D11 (VHH)
VHH: B1 VHH with V5M
B7: VEGFBII37F09 (VHH)
VHH: B1 VHH with A14T, T54S, K65Q, K74N, N77S, S80Y, L86P, T103A, E115D, Y118F
B8: VEGFBII12A07 (VHH)
VHH: EVQLVESGGGLVQAGGSLRLSCSVTGRTFNKYVMGWFRQAPGNDREFVAAITSRDGPTYYADSVKGRFTISGDNTKNKIFLQMNSLMPEDTAVYYCAIDEDLYHYSSYHFTRVDLYHYWGQGTQVTVSS
B9: VEGFBII08E06 (VHH)
VHH: EVQLVESGGGLVQPGGSLRLSCAASGSIVRSDVMGWYRQAPGKQRELVAFIRSLGSTYYAGSVKGRFTISRDDAANTVYLQMNNLKPEDTAVYYCNARFSGESYWGQGTPVTVSS
B10: VEGFBII12C04 (VHH)
VHH: B9 VHH with D73N
B11: VEGFBII86F11 (VHH)
VHH: EVQLVESGGGLVQAGDSLRLSCFTSARTFDTWAMAWFRQAPGKEREFISAISWSGSMTYYTDSVKGRFIISRDNAQNTLFLQMNNTAPEDTAVYYCAAKTVDYCSAYECYARLEYDYWGRGAQVTVSS
B12: VEGFBII04B08 (VHH)
VHH: EVQLVESGGGLVQPGGSLRLSCAASGSAVGDITVAWYRQAPGIQRQLVATITPSGYTYYWDFVKGRFTISRDNSKNIVYLQMNSLKPEDTAAYYCNTQFYWGQGTQVTVSS
B13: VEGFBII16F11 (VHH)
VHH: EVQLVESGGGLVQAGGSLRLSCAASGRTSSGYDMGWFRQAPGKEREFVTAITWSGGSTYSPDSVKGRFTISRDNAKNTVYLQMNNLTPEDTAVYYCASGRIWRSRDYDSEKYYDIWGHGTQVTVSS
B14: VEGFBII09F05 (VHH)
VHH: EVQLVESGGGLVQAGGSLRLSCAASGRTFSTDDVGWFRQAPGKEREFVAVIRWSTGGTYTSDSVKGRFTLSRDNAKNTMYLQMNSLKPEDTAVYYCAARSRPLGAGAWYTGETRYNYWGQGTQVTVSS
B15: VEGFBII09A12 (VHH)
VHH: B14 VHH with K65A, N116D, Y117S
B16: VEGFBII16C03 (VHH)
VHH: B14 VHH with G8E, T113N, R114Y
B17: VEGFBII12B01 (VHH)
VHH: EVQLVESGGGLVQPGGSLRLACAASGFTLSSSWMYWVRQAPGKGLEWVSRISPGGLFTYYVDSVKGRFSVSTDNANNTLYLQMNSLKPEDTALYSCAKGGAPNYTPRGRGTQVTVSS
B18: VEGFBII11C11 (VHH)
VHH: EVQLVESGGGLVQAGGSLMLSCAASGRALSSYAIGWFRQAPGREREFVARISWSGANTYYADSVKGRFTISRGNAKNTVYLQMNSLKPEDTAAYYCAAQTTSKYDNYDARAYGYWGQGTQVTVSS
B19: VEGFBII08E07 (VHH)
VHH: EVQLVESGGGLAQAGGSLRLSCTTSGLTFSSYYMGWFRQAPGKEREFVATISWNKISTIYTDSVKGRFTVSRDNNKNTVYLQMNSLKPEDTAVYYCAADASRPTLRIPQYWGQGTQVTVSS
B20: VEGFBII12E10 (VHH)
VHH: EVQLVESGGGLAQAGGSLRLSCTASGRTFNNYVMGWFRQAPGNEREFVAAITSTNGPTYYADSVKGRFTISGDNTKNKVFLQMDSLRPEDTAVYYCAIDEDLYHYSSYHYTRVALYHYWGQGTQVTVSS
B21: VEGFBII08F07 (VHH)
VHH: EVQLVESGGGLVQAGGSLRLSCAVSGSTFGLYAMGWFRQAPGREREFLSAITWSAGDTQYADSVKGRFTISRDNARNTVNLQMNGLKPEDTAVYYCAGRQWGGTYYYHGSYAYWGQGTQVTVSS
B22: VEGFBII12G04 (VHH)
VHH: B21 VHH with A14S, G16D, S27N, L48V, Y113W
B23: VEGFBII86C11 (VHH)
VHH: EVQLVESGGGLVQAGDSLRLSCTASGRTFNSYAMGWFRQAPGKERESVAHINRSGSSTYYADSVKGRFTISRDNAKNTVYLQLNSLKPEDTAVYYCAAGRYYSSDGVPSASFNYWGQGTQVTVSS
B24: VEGFBII09A09 (VHH)
VHH: EVQLVESGGGLVQPGGSLRLSCVASGIRFMSMAWYRQAPGKHRELVARISSEGTTAYVDSVKGRFTISRDNSKNTVYLQMNSLKAEDTAVYYCNTFSSRPNPWGAGTTVTVSS
B25: VEGFBII11G09 (VHH)
VHH: EVQLVESGGGLVQAGGSLRLSCAASTSIYSITVMAWFRQAPGKEREFVAAITWSAPTTYSADSVKGRFTISRDNAKNTVYLQMNSLKPEDSAIYYCAADRFKGRSIVTRSDYRYWGQGTQVTVSS
B26: VEGFBII11F10 (VHH)
VHH: B25 VHH with T57S, T58S, S60Y, M83V
B27: VEGFBII07A06 (VHH)
VHH: B25 VHH with A24V, T32S, E46A, S60Y, M83T
B28: VEGFBII07A03 (VHH)
VHH: B25 VHH with R45S, T57S, T58S, S60Y, R113K
B29: VEGFBII09D05 (VHH)
VHH: EVQLVESGGGLVQPGDSLRLSCAASGLSFSRYGMGWFRQAPGKEREFVIAISEYDNVYTADSVRGRFTISRDNSKSTVYLQMNSLKSEDTAVYYCAASPTILLSTDEWYKYWGRGTQVTVSS

Biological target: T1, recombinant human VEGF165 (human, UniProt P15692-4 27-191)
T1 construct: also called hVEGF165; rhVEGF165
Assay: ELISA screen, periplasmic extract on coated hVEGF165
Excerpt: Wells are blocked with a casein solution (1%). After addition of typically a 10-fold dilution of the periplasmic extracts, VHH binding is detected using a mouse anti-myc (Roche) and an anti-mouse-HRP conjugate (DAKO). Clones showing ELISA signals of >3-fold above background are considered as VEGF binding VHHs.

T1 sequence (P15692 other isoform, or with tags, fused parts or gaps limits assumed): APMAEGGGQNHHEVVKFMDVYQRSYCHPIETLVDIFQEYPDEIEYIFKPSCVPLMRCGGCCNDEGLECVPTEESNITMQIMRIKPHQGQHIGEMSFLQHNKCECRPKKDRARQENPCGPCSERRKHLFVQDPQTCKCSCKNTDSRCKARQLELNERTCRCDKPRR

Row | binding result | Binder
1 | binds | B1
2 | binds | B2
3 | binds | B3
4 | binds | B4
5 | binds | B5
6 | binds | B6
7 | binds | B7
8 | binds | B8
9 | binds | B9
10 | binds | B10
11 | binds | B11
12 | binds | B12
13 | binds | B13
14 | binds | B14
15 | binds | B15
16 | binds | B16
17 | binds | B17
18 | binds | B18
19 | binds | B19
20 | binds | B20
21 | binds | B21
22 | binds | B22
23 | binds | B23
24 | binds | B24
25 | binds | B25
26 | binds | B26
27 | binds | B27
28 | binds | B28
29 | binds | B29
